Measurements reported in publication PMC4787769.

Biological target: mLANA DBD (Murine gammaherpesvirus 68 (MHV-68), UniProt O41974 124-314)
Test: SAXS; linear octamer model, no DNA bending
Settings: protein: recombinant; tags: GST-6xHis tag (pET49b) removed by 3C protease; chain copies: 2

B1: mLBS1-2 (dsDNA)
DNA 1: GCCATGCGCCCGCGCCTGGGGCGCCACGCGGCGCGCCCTGGAGACCCGGG
DNA 2: CCCGGGTCTCCAGGGCGCGCCGCGTGGCGCCCCAGGCGCGGGCGCATGGC
B1: binds.
